According to article PMC3726529 (Nature, 2013):

Experiments:
isolated TrkA (VpTrkA) = molecular target: T1, isolated TrkA (VpTrkA) (Vibrio parahaemolyticus, UniProt Q87KD2); assay: co-crystal structure, […] Å; format: binding; conditions: 10 mM ATPγS; GXGXXG motif in the N lobe of each RCK domain
T1 sequence (Q87KD2 1-458): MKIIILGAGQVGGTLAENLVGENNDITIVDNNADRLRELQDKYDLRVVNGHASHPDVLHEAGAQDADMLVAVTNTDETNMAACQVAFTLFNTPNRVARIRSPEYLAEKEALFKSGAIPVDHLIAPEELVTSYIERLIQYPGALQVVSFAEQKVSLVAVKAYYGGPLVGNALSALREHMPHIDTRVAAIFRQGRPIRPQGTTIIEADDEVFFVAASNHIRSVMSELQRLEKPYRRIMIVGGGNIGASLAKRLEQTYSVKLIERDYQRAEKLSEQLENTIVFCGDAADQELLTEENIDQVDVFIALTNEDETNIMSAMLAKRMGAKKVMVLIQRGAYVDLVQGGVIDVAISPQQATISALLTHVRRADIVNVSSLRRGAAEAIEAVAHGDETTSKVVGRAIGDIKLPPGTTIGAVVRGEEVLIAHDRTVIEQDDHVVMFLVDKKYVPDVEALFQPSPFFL

[1] = molecular target: TrkA from Vibrio parahaemolyticus, co-expressed with TrkH (Vibrio parahaemolyticus); assay: crystal structure
[2] = molecular target: isolated TrkA from Vibrio parahaemolyticus (Vibrio parahaemolyticus)
crystal structure = molecular target: the molecule itself; assay: crystal structure

Nc1ncnc2c1ncn2[C@@H]1O[C@H](COP(=O)(O)OP(=O)(O)OP(O)(O)=S)[C@@H](O)[C@H]1O [ATPγS, adenosine 5′-O-(3-thiotriphosphate)]
co-crystal structure, 3.05 Å (isolated TrkA (VpTrkA)): Each protomer contains two large densities consistent with ATPγS molecules

TrkA from Vibrio parahaemolyticus, co-expressed with TrkH (natural protein)
stoichiometry N [1]: 4

isolated TrkA from Vibrio parahaemolyticus (natural protein)
stoichiometry N [2]: 4

B1: TrkH from Vibrio parahaemolyticus (natural protein)
chain: MQFRSIIRIVGLLLALFSVTMLAPALVALLYRDGAGVPFVTTFFVLLFCGAMCWFPNRRHKHELKSRDGFLIVVLFWTVLGSAGSLPFLIADNPNISVTDAFFESFSALTTTGATVIVGLDELPKAILFYRQFLQWFGGMGIIVLAVAILPVLGIGGMQLYRAEIPGPVKDTKMTPRIAETAKALWYIYLSLTIACAVAFWLAGMTPFDAISHSFSTIAIGGFSTHDASMGYFDSYAINLITVVFLLISACNFTLHFAAFASGGVHPKYYWKDPEFRAFIFIQVLLFLVCFLLLLKHHSYTSPYDAFDQALFQTVSISTTAGFTTTGFADWPLFLPVLLLFSSFIGGCAGSTGGGMKVIRILLLTLQGARELKRLVHPRAVYTIKVGGSALPQRVVDAVWGFFSAYALVFVVCMLGLIATGMDELSAFSAVAATLNNLGPGLGEVALHFGDVNDKAKWVLIVSMLFGRLEIFTLLILLTPTFWRS
stoichiometry N (crystal structure): 2
